Where “and” joins values, the source holds several entries; their conditions need not be identical. Identical values can stand only once.
T1: HPV 58 VLP抗原 (HPV 58, UniProt P26535 27-524)
T1 sequence: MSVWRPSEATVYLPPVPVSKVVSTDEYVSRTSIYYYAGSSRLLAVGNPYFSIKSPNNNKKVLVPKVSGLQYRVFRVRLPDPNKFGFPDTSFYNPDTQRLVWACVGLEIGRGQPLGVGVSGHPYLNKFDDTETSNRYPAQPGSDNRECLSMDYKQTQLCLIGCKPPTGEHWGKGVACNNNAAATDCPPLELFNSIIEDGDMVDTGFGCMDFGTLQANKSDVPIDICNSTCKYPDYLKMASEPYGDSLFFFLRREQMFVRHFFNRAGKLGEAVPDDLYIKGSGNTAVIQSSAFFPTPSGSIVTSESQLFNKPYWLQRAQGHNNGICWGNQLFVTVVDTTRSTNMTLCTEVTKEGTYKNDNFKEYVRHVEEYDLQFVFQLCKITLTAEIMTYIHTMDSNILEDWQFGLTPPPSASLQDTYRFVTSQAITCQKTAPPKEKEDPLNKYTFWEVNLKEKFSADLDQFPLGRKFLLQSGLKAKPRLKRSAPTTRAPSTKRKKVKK

T2: HPV 31 VLP抗原 (HPV 31, UniProt P17388 1-504)
T2 sequence: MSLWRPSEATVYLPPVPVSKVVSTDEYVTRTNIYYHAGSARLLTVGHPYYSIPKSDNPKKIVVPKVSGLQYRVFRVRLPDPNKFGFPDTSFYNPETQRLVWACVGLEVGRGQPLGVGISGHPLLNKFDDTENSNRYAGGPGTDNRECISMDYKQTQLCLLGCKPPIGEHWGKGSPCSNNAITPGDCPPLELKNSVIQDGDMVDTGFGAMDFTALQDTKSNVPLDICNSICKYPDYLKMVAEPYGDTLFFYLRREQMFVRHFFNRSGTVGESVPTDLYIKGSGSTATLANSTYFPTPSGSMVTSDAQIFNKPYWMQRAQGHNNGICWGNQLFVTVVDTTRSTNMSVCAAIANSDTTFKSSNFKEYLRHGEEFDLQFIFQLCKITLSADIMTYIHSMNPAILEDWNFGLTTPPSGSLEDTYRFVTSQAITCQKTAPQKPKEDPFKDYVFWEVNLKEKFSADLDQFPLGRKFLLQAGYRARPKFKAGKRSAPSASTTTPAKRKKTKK

T3: HPV11 VLP抗原 (HPV11, UniProt P04012 1-501)
T3 sequence: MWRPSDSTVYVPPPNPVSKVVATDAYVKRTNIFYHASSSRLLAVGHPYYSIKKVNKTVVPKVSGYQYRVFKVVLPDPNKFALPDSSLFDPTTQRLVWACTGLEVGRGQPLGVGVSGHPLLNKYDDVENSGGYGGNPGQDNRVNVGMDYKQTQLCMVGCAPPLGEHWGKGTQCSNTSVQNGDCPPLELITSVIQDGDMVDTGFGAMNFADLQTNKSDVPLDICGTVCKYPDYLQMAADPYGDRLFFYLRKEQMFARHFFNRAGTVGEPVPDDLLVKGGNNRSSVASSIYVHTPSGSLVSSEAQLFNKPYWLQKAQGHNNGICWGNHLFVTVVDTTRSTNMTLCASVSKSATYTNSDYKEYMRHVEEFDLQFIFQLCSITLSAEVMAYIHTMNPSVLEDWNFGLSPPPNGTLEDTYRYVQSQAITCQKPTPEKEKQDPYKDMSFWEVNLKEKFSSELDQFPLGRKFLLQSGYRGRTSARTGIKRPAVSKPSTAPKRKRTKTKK

T4: HPV 16 VLP抗原 (HPV 16, UniProt P03101 1-505)
T4 sequence: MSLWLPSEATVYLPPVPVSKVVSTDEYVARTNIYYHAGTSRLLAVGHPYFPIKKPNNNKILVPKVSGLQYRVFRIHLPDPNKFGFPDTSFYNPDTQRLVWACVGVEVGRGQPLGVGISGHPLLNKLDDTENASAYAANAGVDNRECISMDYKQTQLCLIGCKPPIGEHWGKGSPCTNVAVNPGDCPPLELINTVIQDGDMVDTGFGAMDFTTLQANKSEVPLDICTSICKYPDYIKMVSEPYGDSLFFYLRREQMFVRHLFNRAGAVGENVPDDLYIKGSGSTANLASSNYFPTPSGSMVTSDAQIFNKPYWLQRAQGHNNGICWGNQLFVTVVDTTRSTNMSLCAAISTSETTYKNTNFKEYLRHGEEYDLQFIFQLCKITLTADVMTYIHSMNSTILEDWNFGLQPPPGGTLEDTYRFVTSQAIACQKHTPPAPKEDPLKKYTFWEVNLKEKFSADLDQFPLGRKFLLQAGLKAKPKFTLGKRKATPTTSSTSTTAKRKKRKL

T5: HPV45型衣壳蛋白L1病毒样颗粒(VLP)抗原 (HPV 45型) (UniProt P36741)
T5 sequence: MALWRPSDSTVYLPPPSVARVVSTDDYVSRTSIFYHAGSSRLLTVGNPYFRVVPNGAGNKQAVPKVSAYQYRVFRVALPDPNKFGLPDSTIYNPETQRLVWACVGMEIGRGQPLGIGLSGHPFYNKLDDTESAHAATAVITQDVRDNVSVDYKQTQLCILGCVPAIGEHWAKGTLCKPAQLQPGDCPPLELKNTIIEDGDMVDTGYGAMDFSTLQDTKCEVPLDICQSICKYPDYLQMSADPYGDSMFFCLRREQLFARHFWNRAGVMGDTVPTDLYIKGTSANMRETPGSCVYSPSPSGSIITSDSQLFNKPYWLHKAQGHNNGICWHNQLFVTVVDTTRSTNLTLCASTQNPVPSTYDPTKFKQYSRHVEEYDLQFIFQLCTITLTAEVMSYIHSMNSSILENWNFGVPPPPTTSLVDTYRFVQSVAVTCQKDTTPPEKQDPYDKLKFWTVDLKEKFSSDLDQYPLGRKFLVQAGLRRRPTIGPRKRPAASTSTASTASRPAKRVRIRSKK


Tests used:
HPV 58 VLP抗原 = target: T1, HPV 58 VLP抗原; experiment: direct ELISA on coated VLP antigens
HPV 31 VLP抗原 = target: T2, HPV 31 VLP抗原; experiment: direct ELISA on coated VLP antigens
HPV11 VLP抗原 = target: T3, HPV11 VLP抗原; experiment: direct ELISA on coated VLP antigens
HPV 16 VLP抗原 = target: T4, HPV 16 VLP抗原; experiment: direct ELISA on coated VLP antigens
[1] = target: T5, HPV45型衣壳蛋白L1病毒样颗粒(VLP)抗原 (HPV 45型); experiment: sandwich ELISA, rabbit pAb R163 capture 1:500, mAb 1:20000; antigen 13.3 ug/ml, 2.5-fold series, step 5
[2] = target: T5, HPV45型衣壳蛋白L1病毒样颗粒(VLP)抗原 (HPV 45型); experiment: sandwich ELISA, rabbit pAb R163 capture 1:500, mAb 1:20000; antigen 13.3 ug/ml, 2.5-fold series, step 7
[3] = target: T5, HPV45型衣壳蛋白L1病毒样颗粒(VLP)抗原 (HPV 45型); experiment: direct ELISA on coated HPV45 VLP, purified antibody titrated; positive if OD > 2.1 x NC

Binder | binding result (HPV 58 VLP抗原) | binding result (HPV 31 VLP抗原) | binding result (HPV11 VLP抗原) | binding result (HPV 16 VLP抗原) | OD [1] | OD [2] | 灵敏度 [3] [µg/mL]
杂交瘤细胞株7A5(CGMCC NO:45706)分泌的鼠源单克隆抗体 (antibody, V domains shown, also called 鼠单抗7A5; 抗体7A5) VH: QPGAELVKPGASVKLSCKASGYTFTSYWMHWVKQRPGQGLEWIGEINPSNGHTNYNEKFKSKATLTVDKSSSTAYMQLSSLTSEDSAVYYCAPCYGSSYDYYAMDYWGQGTSVTVSS VL: DIVLTQSPASLAVSLGQRATISCRASQSVSTSSYSYMHWYQQKPGQPPKLLIKYASNLESGVPARFSGSGSGTDFTLNIHPVEEEDTATYYCQHSWEIPYTFGGGTKLEIK | no binding | no binding | no binding | no binding | 1.54 OD and 1.56 OD | 0.379 OD and 0.358 OD | 0.0005
杂交瘤细胞株11G1(CGMCC NO:45707)分泌的鼠源单克隆抗体 (antibody, V domains shown, also called 鼠单抗11G1; 抗体11G1) VH: QVQLQQPGAELVKPGASVKLSCKASGYTFTSYWMHWVKRRPGQGLEWIGEINPSNGLTNYNEKFKSKGTLTVDKSSSAAFMHLSSLTSEDSAVYYCARFHGSDLYAMDYWGQGTSVTVSS VL: DIVLTQSPASLAVSLGQRATISCRASQSVSTSSYSYMHWYQQKPGQPPKLLIKYASNLESGVPARFSGSGSGTDFTLNIHPVEEEDTATYYCQHSWEIPYTFGGGTKLEIK | no binding | no binding | no binding | no binding | 0.922 OD and 1.02 OD | 0.218 OD and 0.206 OD | 0.0005

Source: patent CN117466995A (YIDAO BIOTECHNOLOGY SUZHOU CO LTD, dated 2024)
